T1: CgHSF1 (Colletotrichum gloeosporioides)
T1 chain: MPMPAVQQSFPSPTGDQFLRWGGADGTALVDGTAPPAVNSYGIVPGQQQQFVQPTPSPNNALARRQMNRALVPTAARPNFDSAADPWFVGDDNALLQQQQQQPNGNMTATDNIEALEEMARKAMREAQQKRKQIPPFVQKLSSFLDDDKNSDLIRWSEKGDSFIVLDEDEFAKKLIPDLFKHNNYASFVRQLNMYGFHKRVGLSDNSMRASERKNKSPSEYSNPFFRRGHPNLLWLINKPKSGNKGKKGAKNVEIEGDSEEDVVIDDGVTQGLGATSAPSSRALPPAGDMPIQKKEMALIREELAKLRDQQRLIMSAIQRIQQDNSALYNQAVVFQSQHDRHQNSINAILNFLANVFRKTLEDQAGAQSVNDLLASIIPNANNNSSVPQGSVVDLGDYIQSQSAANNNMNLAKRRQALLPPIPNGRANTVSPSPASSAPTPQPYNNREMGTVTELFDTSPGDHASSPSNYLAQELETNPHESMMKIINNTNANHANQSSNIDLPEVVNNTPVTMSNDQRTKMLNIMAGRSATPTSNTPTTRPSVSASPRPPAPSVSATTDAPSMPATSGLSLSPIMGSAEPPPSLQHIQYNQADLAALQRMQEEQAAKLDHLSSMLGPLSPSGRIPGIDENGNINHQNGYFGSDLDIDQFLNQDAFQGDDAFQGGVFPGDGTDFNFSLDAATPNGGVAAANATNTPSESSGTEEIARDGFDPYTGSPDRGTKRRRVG

B1: T4HRa-probe (dsDNA)
DNA 1: CGAGTAAGGCACGCGAAGTTCAGGAGAGAGACCT
DNA 2: AGGTCTCTCTCCTGAACTTCGCGTGCCTTACTCG
B2: YG-probe (dsDNA)
DNA 1: TGTGGTGGTTTGAGAACATTCACTCAAAGCTCAC
DNA 2: GTGAGCTTTGAGTGAATGTTCTCAAACCACCACA
B3: CMR1-probe (dsDNA)
DNA 1: CGTATCACTTGTTCGAATTTCTCACACATTCGGT
DNA 2: ACCGAATGTGTGAGAAATTCGAACAAGTGATACG

This series addresses T1, CgHSF1. In words: EMSA. As to conditions: protein: recombinant; tags: His (Ni-NTA purified, pCOLD vector); blunt.
In the case of B1, the binding result was “binds”.

Turning to B2, the binding result is “binds”.

As to B3, the binding result was “binds”.

Source of the values: paper PMC8876323, “Heat Shock Transcription Factor CgHSF1 Is Required for Melanin Biosynthesis, Appressorium Formation, and Pathogenicity in Colletotrichum gloeosporioides”.
